US20220185900A1 (Regeneron, published 2022)
Positions count from the first letter of the chain named. In names and notes the source's numbering stands.

T1: Macaca fascicularis (mf) RET.mmh (Macaca fascicularis)
T1 construct: also called monkey RET
T1 chain: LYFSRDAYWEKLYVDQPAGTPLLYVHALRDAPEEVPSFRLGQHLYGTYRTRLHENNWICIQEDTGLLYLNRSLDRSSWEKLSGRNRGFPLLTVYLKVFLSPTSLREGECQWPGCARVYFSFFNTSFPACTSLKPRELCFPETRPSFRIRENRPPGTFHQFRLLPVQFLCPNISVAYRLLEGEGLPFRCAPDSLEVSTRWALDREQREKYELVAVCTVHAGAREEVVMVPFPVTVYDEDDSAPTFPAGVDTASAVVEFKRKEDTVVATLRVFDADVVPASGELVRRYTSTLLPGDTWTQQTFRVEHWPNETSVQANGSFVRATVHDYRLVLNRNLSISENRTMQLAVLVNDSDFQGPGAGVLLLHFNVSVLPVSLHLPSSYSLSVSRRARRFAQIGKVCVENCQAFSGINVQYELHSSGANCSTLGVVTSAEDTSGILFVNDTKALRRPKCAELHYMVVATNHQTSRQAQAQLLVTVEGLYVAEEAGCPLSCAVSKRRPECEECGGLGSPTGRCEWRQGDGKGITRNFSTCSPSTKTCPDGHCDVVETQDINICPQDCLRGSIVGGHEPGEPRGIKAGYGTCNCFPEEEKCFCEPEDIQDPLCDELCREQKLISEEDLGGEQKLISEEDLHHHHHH

B1: H4H8087P (antibody, human IgG4, V domains shown)
VH: QVQLVESGGGVVQPGRSLRLSCAASGFSFSSYGMHWVRQAPGKGLEWVAVMWYDGSNEYYADSVKGRFIISRDNSKSTLYLEMNSLRAEDTALYYCAREDWDEGYYYGMDVWGQGTTVTVSS
VL: DIQMTQSPSSLFASVGDRVTITCRASQDIRYDLGWYQQKPGKAPKRLIYASSILESGVPSRFSGSGSGTEYTLTISTLQSEDFAIYYCLQHNSFPWTFGQGTKVEIK
notes: human IgG4 Fc (H4H prefix)
B2: H4H8056P (antibody, human IgG4, V domains shown)
VH: QVQLVESGGGVVQPGRSLRLSCAASGFTFRNYGMHWVRQAPGKGLEWVAVKRYDGSDEYFVDSVKGRFTISRDNSKNTLFLQMNSLRVDDTAVYYCARETPITGTTLDYWGQGTLVTVSS
VL: DIQMTQSPSSLSASVGDRVTITCRTSQSITNYLNWYQQKPGKAPKLLIYAASRSQSGVPSRFSGSGSGTDFTLTISSLQPEDFATYYCQQSYSTPLTFGGGTKVEIK
notes: human IgG4 Fc (H4H prefix)
B3: H4H8058P (antibody, human IgG4, V domains shown)
VH: QVQLVESGGGVGQPGRSLRLSCVASGFTFRNYGMHWVRQAPGKGLDWVAIIGYDGSKEYNVDSVKGRFTISRDNSKNTLYLQMNSLGAEDTAIYYCARESPITGTTFDYWGQGTLVTVSS
VL: B2 VL with S9P, T25A, T30G, L46I, S54L
notes: human IgG4 Fc (H4H prefix)
B4: H4H8060P (antibody, human IgG4, V domains shown)
VH: QVTLKESGPVLVKPTETLTLTCTVSGFSLSSARMGVSWIRQPPGKALEWLAHIFSTDEKSYSTSLKSRLSISKDTSLSQVVLIMTNMDPVDTATYYCARRTTMAPYYYYYGMDVWGHGTTVTVSS
VL: AIQMTQSPASLSASVGDRVTITCRASQGIRNDLGWYQQKPGKAPKLLISAASSLQSGVPSRFSGSGSGTDFTLTISSLQPEDFATYYCLQDYKYPWTFGQGTKVEIK
notes: human IgG4 Fc (H4H prefix)
B5: H4H8062P (antibody, human IgG4, V domains shown)
VH: EVQLVESGGGLVQPGGSLRLSCSVSGFIFKNYAMRWVRQAPGKGLEWVSGISGSGGITYYADSVRGRVTISRDNSKNTLDLQMTNLRAEDTAVYYCAKAEYSSSGAYFDYWGQGTLVTVSS
VL: DIQMTQSPSSLSASVGDRVTITCRASQSIHNYLNWYLQRPGKAPKLLVYAASSLQSGVPSRFSGRGSGTDFTLTISSLQPEDFATYYCQQSYSAPYSFGQGTKLEIK
notes: human IgG4 Fc (H4H prefix)
B6: H4H8071P (antibody, human IgG4, V domains shown)
VH: EVQLVESGGGLVQPGGSLRLSCAASGFTFTTYFMSWVRQAPGKGLEWVSGISGSGTSTFYVDSMKGRFTISRDNSKNTLYLQMNSLRVEDTAVYFCAKENTYGHFDFWGQGTLVTVSS
VL: DIQLTQSPSFLSASVGDRVTITCWASQDISSHLAWYQQKPGKAPKVLIYDASTLQSGVPSRISGSGSGTEFTLTISSLQPEDFAAYYCQQLDGYPYTFGQGTKLEIK
notes: human IgG4 Fc (H4H prefix)
B7: H4H8076P (antibody, human IgG4, V domains shown)
VH: QVQLQQSGPGLVKPSQTLSLTCAISGDSVSSNSVAWNWIRQSPSRGLEWLGRTYYRSNWYNTYAVSVKSRITIDPDTSKNQFSLQLNSVTPEDTALYYCARGHRYSGSYFDYWGQGTLVTVSS
VL: DIQMTQSPSSLSASVGDRVTITCRASQNINSYFNWYQQKPGKAPKLLIYAASSLQSGVPSRFSGGGSGTDFTLTISSLQPEDFATYYCQQTYTIPWTFGQGTKVEIK
notes: human IgG4 Fc (H4H prefix)

Key:
[1] = target: T2, hRET.mmh (human, UniProt P07949 29-635, biotinylated in the ELISA of Example 4 (biot-hRET.mmh); not in the SPR of Example 3); test: competition sandwich ELISA: 1 nM biot-hRET.mmh + antibody, plate-coated GDNF/GFRα1 co-complex
T2 construct: also called biot-hRET.mmh; soluble monomeric human RET
Description: The ability of anti-RET antibodies to block the binding of human RET to pre-complexed plate bound GDNF:GFRα1 was assessed using a competition sandwich ELISA.
Antibody-RET mixtures were incubated for 1 hour at RT and then transferred to microtiter plates previously coated with the hGDNF/hGFRα1 co-complex. Binding was allowed to proceed for 1 hr at RT followed by extensive washing. […] Plates were read at 450 nm and data analysis used a sigmoidal dose-response model within Prism™ software.
The absorbance values of the wells containing the highest concentration for each antibody were used to determine the blocking percent at maximum concentration antibody tested.

[2] = target: T3, hRET.mFc (human); test: SPR Biacore T200, mAb capture, 37 C
T3 construct: also called dimeric human RET
Description: (§1) Binding affinities and kinetic constants of human anti-RET antibodies were determined by surface plasmon resonance (Biacore T200) at […] (Tables 2-3). […] Binding equilibrium dissociation constants (KD) and dissociative half-lives (t_{1/2}) were calculated from the kinetic rate constants as: KD [M]=kd/kₐ; and t_{1/2}(min)=(ln2/(60*kd). Calculations were performed using BiacoreT200 evaluation software v1.0.

[3] = target: T1, Macaca fascicularis (mf) RET.mmh; test: SPR Biacore T200, mAb capture, 37 C
Description: as §1

[4] = target: T2, hRET.mmh; test: SPR Biacore T200, mAb capture, 37 C
Description: as §1

[5] = target: T3, hRET.mFc; test: SPR Biacore T200, mAb capture, 25 C
Description: as §1

[6] = target: T1, Macaca fascicularis (mf) RET.mmh; test: SPR Biacore T200, mAb capture, 25 C
Description: as §1

[7] = target: T2, hRET.mmh; test: SPR Biacore T200, mAb capture, 25 C
Description: as §1

Row | Binder | % Max Blocking [1] | Kd [2] | koff [2] | kon [2] | t½ [2] | Kd [3] | koff [3] | kon [3] | t½ [3] | Kd [4] | koff [4] | kon [4] | t½ [4] | Kd [5] | koff [5] | kon [5] | t½ [5] | Kd [6] | koff [6] | kon [6] | also measured
1 | B1 | 92% | 0.349 nM | 0.000441 s⁻¹ | 1.26e+06 M⁻¹ s⁻¹ | 26 min | 1.57 nM | 0.00131 s⁻¹ | 836000 M⁻¹ s⁻¹ | 9 min | 0.968 nM | 0.00123 s⁻¹ | 1.27e+06 M⁻¹ s⁻¹ | 9 min | 0.087 nM | 0.000107 s⁻¹ | 1.22e+06 M⁻¹ s⁻¹ | 108 min | 0.424 nM | 0.000272 s⁻¹ | 641000 M⁻¹ s⁻¹ | IC50 [1]: < 0.25 nM; t½ [6]: 42 min; Kd [7]: 0.27 nM; koff [7]: 0.000242 s⁻¹; kon [7]: 896000 M⁻¹ s⁻¹; t½ [7]: 48 min
2 | B2 | 73% | 5.62 nM | 0.00128 s⁻¹ | 227000 M⁻¹ s⁻¹ | 9 min | 10.3 nM | 0.00313 s⁻¹ | 303000 M⁻¹ s⁻¹ | 4 min | 8.88 nM | 0.00289 s⁻¹ | 326000 M⁻¹ s⁻¹ | 4 min | 1.47 nM | 0.000272 s⁻¹ | 185000 M⁻¹ s⁻¹ | 42 min | 2.69 nM | 0.000583 s⁻¹ | 216000 M⁻¹ s⁻¹ | t½ [6]: 20 min; Kd [7]: 2.56 nM; koff [7]: 0.000539 s⁻¹; kon [7]: 211000 M⁻¹ s⁻¹; t½ [7]: 21 min
3 | B3 | 93% | 2.18 nM | 0.00121 s⁻¹ | 552000 M⁻¹ s⁻¹ | 10 min | 4.16 nM | 0.00226 s⁻¹ | 543000 M⁻¹ s⁻¹ | 5 min | 4.18 nM | 0.00221 s⁻¹ | 528000 M⁻¹ s⁻¹ | 5 min | 1.1 nM | 0.000259 s⁻¹ | 236000 M⁻¹ s⁻¹ | 45 min | 2.35 nM | 0.00054 s⁻¹ | 230000 M⁻¹ s⁻¹ | IC50 [1]: 0.25 nM; t½ [6]: 21 min; Kd [7]: 2.09 nM; koff [7]: 0.000518 s⁻¹; kon [7]: 248000 M⁻¹ s⁻¹; t½ [7]: 22 min
4 | B4 | 95% | 0.558 nM | 0.000592 s⁻¹ | 1.06e+06 M⁻¹ s⁻¹ | 19 min | 1.88 nM | 0.00209 s⁻¹ | 1.12e+06 M⁻¹ s⁻¹ | 6 min | 1.41 nM | 0.00157 s⁻¹ | 1.11e+06 M⁻¹ s⁻¹ | 7 min | 0.179 nM | 0.000149 s⁻¹ | 827000 M⁻¹ s⁻¹ | 78 min | 0.523 nM | 0.000393 s⁻¹ | 751000 M⁻¹ s⁻¹ | IC50 [1]: < 0.25 nM; t½ [6]: 29 min; Kd [7]: 0.409 nM; koff [7]: 0.000311 s⁻¹; kon [7]: 761000 M⁻¹ s⁻¹; t½ [7]: 37 min
5 | B5 | 97% | 2.4 nM | 0.00088 s⁻¹ | 366000 M⁻¹ s⁻¹ | 13 min | 6.31 nM | 0.00428 s⁻¹ | 678000 M⁻¹ s⁻¹ | 3 min | 2.65 nM | 0.00181 s⁻¹ | 682000 M⁻¹ s⁻¹ | 6 min | 0.49 nM | 0.00022 s⁻¹ | 400000 M⁻¹ s⁻¹ | 53 min | 1.46 nM | 0.000733 s⁻¹ | 501000 M⁻¹ s⁻¹ | IC50 [1]: < 0.25 nM; t½ [6]: 16 min; Kd [7]: 0.733 nM; koff [7]: 0.00037 s⁻¹; kon [7]: 505000 M⁻¹ s⁻¹; t½ [7]: 31 min
6 | B6 | 72% | 1.04 nM | 0.000312 s⁻¹ | 300000 M⁻¹ s⁻¹ | 37 min | 7.04 nM | 0.00114 s⁻¹ | 161000 M⁻¹ s⁻¹ | 10 min | 3.79 nM | 0.000896 s⁻¹ | 236000 M⁻¹ s⁻¹ | 13 min | 0.89 nM | 0.000179 s⁻¹ | 200000 M⁻¹ s⁻¹ | 65 min | 2.32 nM | 0.000272 s⁻¹ | 117000 M⁻¹ s⁻¹ | IC50 [1]: 0.36 nM; t½ [6]: 43 min; Kd [7]: 1.41 nM; koff [7]: 0.000219 s⁻¹; kon [7]: 156000 M⁻¹ s⁻¹; t½ [7]: 53 min
7 | B7 | 95% | 2.15 nM | 0.000675 s⁻¹ | 314000 M⁻¹ s⁻¹ | 17 min | 4.84 nM | 0.0014 s⁻¹ | 289000 M⁻¹ s⁻¹ | 8 min | 4.31 nM | 0.00136 s⁻¹ | 315000 M⁻¹ s⁻¹ | 9 min | 0.686 nM | 0.000171 s⁻¹ | 250000 M⁻¹ s⁻¹ | 68 min | 1.54 nM | 0.000327 s⁻¹ | 212000 M⁻¹ s⁻¹ | IC50 [1]: < 0.25 nM; t½ [6]: 35 min; Kd [7]: 1.51 nM; koff [7]: 0.000338 s⁻¹; kon [7]: 224000 M⁻¹ s⁻¹; t½ [7]: 34 min
